{
  "source": "the DeepSol protein solubility set",
  "data": [
    {"test": "soluble on expression in E. coli; label from the status in PepcDB or PDB records", "values": [
      {"sequence": "MSSNLIRFVGNHDIASEGKFLFEILSQLRNFGVGRLVTKNEWTRKWPNNPSYMKILRAEPGMDRWLFEGKVYAEWVFRGKNLGVYEFSKDLNRSDWQLVHKHQEKSYTSSTTPMQDLVLPDSFPLPPLQVHLSQKSARKNGLDEKTVSRRAPLTLSVDPEFQHLKPFIKQEAPSTKSVSIYEEVDKNALLDLYGNELPVKVEAWNAGPAMFQPRFNATTMRVEEQPPK", "soluble on expression in E. coli": "not soluble"},
      {"sequence": "MSSEYIIGRNPVIEALRSGRDINKIWIAEGAAKGQVQIVLALAKENKIILQHAPKKKLDQLVEGNHQGVIAQVAAYQYAELEDLFKVAEKRNEDPFFLILDEIEDPHNLGSIMRTADATGAHGIIIPKRRAVGLTASVAKASTGAIEYIPVARVTNLSRTIDELKERGLWIAGTDAKGKTDYRNLDGKMPIGLVIGSEGKGMSRIIGEKCDFLITLPMVGKVTSLNASVAASLLMYEVYRKRNEIGK", "soluble on expression in E. coli": "soluble"},
      {"sequence": "MSLNLTTTVLSLQLEQPFVSNKGSTTTVHQVVIKLTWQEYGGFGTVLCPKETQLSVEQIQQLIQACEPLLSTATPWQFELYQGQLASVVRNQAAMMAGIDMAWHDLLGKVVAQPIHALWGLAGLSIPPTALSLGAQSEQALVAQAAKLAAWPILKLKLTTDSNLDSLRQLREVYAGRIWVDGNGAWDVDQAIAAAQQCHTYGVELIEQPIPAGNLDQLRTIRQHSPIPIVADEDCRGLADVLRLHTCVDVINLKLFKCGGLRQARTMIDVAKQFGLKVMLGCKTESSLGISAIAQLAGLADYLDLDGHLDLVNDPFQGLVIEQGTLRLPQTPGLGLTIQGAIEEGHHHHHH", "soluble on expression in E. coli": "not soluble"},
      {"sequence": "MSEEIKQEVKEEAPETTTEAKTEEAAPVAEVVAEVVTNGDKPAENGKTEEPSKYAETENYKKLIGLKMKPALADVVCEIYESGLLGPEDLDDRAVDIINSVNLDQAKFIFTEIKNSELFGVATKSLYVTSLIRSFKDRCRQQGAAAVTSGKLINGPELAALKNLLETTGYTIEVTIGQRKFGGPPPDWEGPATGPAGQGHEIYVGHIPTDVFEDTLVPLFEKSGKIWDLRLMMDPMSGASRGYAFVTYCNKEDAAAAAKTYDGHEISTGKPLKVNVSIANTRLFIGNIPKTKSKDEILEELKTHAEGVVDVIVYSVPDNEKIKNRGFCFVDFIDHKTASDIKRKIAQHKIRPFNADVYVDWAEHQEEPDEDTMSKVKVLYIRNIKEAVTEEKLNELFKEYASLDRVKKVKDYAFIHFNERDDCLKAMEEWNGKELEGTVVEASLAKPPQEKKKKPVMRGRGFGGAGGGAGNHGQRGGQRGGGQWGGNAGPGGYYPNHFNNGYDMPMPWGGGYGGDMGYGAYGGGYGGGYGGPGAYGDFGAYGGGGFRGGMRGSPRGGMGGGGGFRGGPPGRGGMANRRGRGKRPGDGRGGPASKRDNGKPDFSADVNMSTF", "soluble on expression in E. coli": "not soluble"},
      {"sequence": "MHQQLMVMIDRKRRRSFIMMRSMFSGVSGLQAHQTKMDVIGNNVANVNTVGFKSSRVTFQEVFSQTLKGASSPDPTTGRGGTNPMQVGLGLGVATIDTLMTRGSVQRTDNPTDLAIEGDGFFIVKGGSSDTFKFTRAGNFGIDRLGNLVTGSGLNVYGWQSYTKLPDGTYKFDTESQIEPINLYSDDVNKNKRMIAAKATTYAIFEGNLDASYSIYSSAASGTSSNNRFTMPVTVYDSLGNSYKINISFWKTDVTGGVTTWTWQVDSGNGVTASGATGTILFDDQGQVIESSAVTPSITIIPDSSVGSQNINVKLDFSRLTMYAADSSAKATNVDGYPAGSLVTFSIGSDGMIMGIYSNGQQQPLGLIALASFDNPAGLEKVGENMYIPTSNSGEFKKGVKAGTEGVGTLSPGTLEMSNVDLSKEFTEMIITQRGFQANSRIITTSDEMLQELVNLKR", "soluble on expression in E. coli": "not soluble"},
      {"sequence": "MSLGDSRTKPMEILLVEDGLVDARVTIHALRRSGLHHRLTLVRSVHEAILFMKRTGIFARAPRLDLLLLDMILPDGTGIDVLEEMSELQPDSSRVTTVVLTACEDASYRTRCDELGVYDYIQKPVSEDEFLRVVRDHKKLMIHLQQAAVSAAAGNHSEGHHHHHH", "soluble on expression in E. coli": "soluble"},
      {"sequence": "DSNALWMPYVNGRIRVIVMRNGGGGIFRFIPGPDSLKELETCFETPLEVPVREMAGAYGWRYMKAVSAEELETVLPSFFASGDRAVLLEVETPRFENAPVLKSYFTYISGESYPVNR", "soluble on expression in E. coli": "not soluble"},
      {"sequence": "MQMYLADCIFPDIEGQLAAYKSFCELWDSGEMAKLDNFDGFQMLFRVHAPGAGRVTILFKAESDAQIFEAFAPWRAQFGIEMDFTPVIGCQDVVDYHKKLFAKMS", "soluble on expression in E. coli": "not soluble"},
      {"sequence": "MSLAENSLKIWNWSYYIDEALLDEFAAHAGIPRENIVYDEYDDPNVVLSRLEAGKSGYDVVIIPDYILDVAIKEGLLMELNKSLIPNYPHLDEKFKSTPYDPEGRYSAVYMWGTTGFGYRSDLAEKVTTLRQIFDPDYGYLKKYSKKITMLEEPIEVILACKAFLGKSVDDWSDETMQEVKEALIRQKPYLAAYAGANVYVEGLKNGSIYVAHAYNGDIVRLQDEEGVDQASFAIPEEGGTIWTDNMCIPKDAENVELAHEFINFMLDPEVSGRNSDYIKYASPVKEARNYVSEEVLENPAVYVPEDLMKKLWFTPQLDEEARRKIENLMIEVKASTEGHHHHHH", "soluble on expression in E. coli": "soluble"},
      {"sequence": "MESKQPEDIHQDCELKQDELISKLQHSQQNFDNIKKILANFEKENENLADENEILKTRIASLEKDVKQEKNATKMAKSLNEETINELTLSEDLIESLKKQFQASKIELKEEILSKNKVEKDYSNDKRYFLEREQYLLITMESMESGKLEHEQQTEIMNKDVEELKIRVKELEATDLSEKNIELERQVGKLTAQLQDFESSRGYEQELILSQLEVQKRKLDKQLIDLQSKLERNPELVEFDKLHEELQTERMNMPVQVCYVHVSFIHKDIENLIYRKMNNNK", "soluble on expression in E. coli": "not soluble"},
      {"sequence": "GAMGNICNSGGVSRTYSPPTSPVYGSGVSSPSRFVGQYTLTSIHQLSSEERENFLDAHDPMRVYDLNSETSVYRTTQREYVRNGYATGNPNSGAIIALHEELQESPYAQHIGARPDQADAYRPRTAHVSSLNTPSLNVMAGQGALSALRGYAGSDHVTTEMRLGDFLDQGGKVYSDTSAMSAGGDSVEALIVTLPKGRKVPVNILD", "soluble on expression in E. coli": "soluble"},
      {"sequence": "MRNIDFSPLYRHAIGFDRLFNLVENSANKPSQQNGYPPYNIEQKDENNYRITMAVAGFSEDALTISQNEHMLIVSGDITSSEIKPTYVYQGIAERNFERKFQLADYVTVSAASMENGLLHIDLVREVPEAVQARKIAINK", "soluble on expression in E. coli": "not soluble"},
      {"sequence": "MENAPLLFQLPDDDTLYQALLARDPAYEGFAFVGVKSTGVFCRLTCAARKPKRENTVFFGSIKGCVEAGFRACLRCRPLERAGVQEPWVQTLLEQLGRDPERRWYEDDLVAQGLDPSTVRRAFKRYFGVTFLEMARLRRMGQGMQQLASGEPVIEAQISAGFDSDSGFRHAFSRLAGQPPSNLRGRELLKVDWLQTPIGVMLAVADAQVLHLLEFFDRPALANELQNLQKSSGSSIGFGRFAPIDQIEAELQRYFAGEAVHFATPLAMSASPFTRTVWQALRAIPLGTTCSYAEVARQVGSPSAVRAVARANAANQISIVIACHRVIGADGSLTGYGGGLEHHHHHH", "soluble on expression in E. coli": "not soluble"},
      {"sequence": "GMENEENSAREQEADDFLHIASVKEDWGGDGRGRMNLSGRRTAIAKEYLPRQYQFFDTNTVMEKQGWRVRGMPDNIAPGSRRLLTWHDSGASTSRVVLPPKFEAPSGIFTADLEIFVIKGAIQLGEWQLNKHSYSFIPAGVRIGSWKVLGGEEAEILWMENGSVPLEYKYAQEDHPDARLSDFIPALDSKLLPWGKADTVQFVQANKKWLRKDINGGGVWLLAILPHFDNKYQMIQPYNEEGYCLTGYCDVGDYRIVKDHYWYCPSFSTLPRHITDDGGLFFVRVDRDLSKVATVLSYAPQDT", "soluble on expression in E. coli": "soluble"},
      {"sequence": "MSYSKPLAYPSQKCVIKHMEVNSRFKLSHQSPSIRKIEKSTPLRIDSLTLKLDQCSVKINNILHTFRKEKLPKNMQLPQAFMCLMSKLFCGRRDPIQVKTLSIECKGSLQLPAGLCLKVSHLEILGSGVDKIADDLQPLLRGSKLQSITVNNDFNIHHPIFKTAHLLILKNPNKNLFRATAASNVMVKSTCQFLDLFDKIVELIRNWQSYGQKIGAIWNFSMRQEQFALLSLVQLRKLPGASYKGHEKFSESGRSIIIPIDNSAEVHAFVKKEQDDCNLNVIVRRRQF", "soluble on expression in E. coli": "soluble"},
      {"sequence": "MSLKLSDPGPIFYGHRRVGHNGRYFHCLKFRTMAMNGDEMLRQYLAANPEAAEEWRATRKLKNDPRVTAVGAVLRKLSLDELPQLLNIIRGEMSVVGPRPVVDEELSYYENAAAYYLSTRPGLTGLWQISGRNDVSYKTRVAFDTQYVQNWSMRQDVFIIVKTIPAVCMSRGSYEGHHHHHH", "soluble on expression in E. coli": "soluble"}
    ]}
  ]
}
